In patent WO2011097527A2:

Key:
[1] = molecular target: recombinant human FcγRIIb (human) (UniProt P31994); experiment: SPR (Biacore), global Langmuir fit
[2] = molecular target: FcγRIIb on the cell surface (UniProt P31994); experiment: binding to cell-surface FcγRIIb (cells and method not stated)

S239D/S267E (antibody)
Fold (KD(Native IgG1)/KD(variant)) [1]: 150 fold | Kd [1]: 12 nM | EC50 [2]: 2 nM | Fold (cell surface EC50 against native IgG1) [2]: 220 fold
